Experimental data reported in patent US20250340659A1 (PETMEDIX, published 2025).

Key:
[1] = target: T1, canine OX40L, full length membrane form, expressed on HEK293 cells (canine); test: flow cytometry, OX40L HEK minus WT HEK
T1 construct: also called OX40L expressing HEK; HEK OX40L cells
T1 chain: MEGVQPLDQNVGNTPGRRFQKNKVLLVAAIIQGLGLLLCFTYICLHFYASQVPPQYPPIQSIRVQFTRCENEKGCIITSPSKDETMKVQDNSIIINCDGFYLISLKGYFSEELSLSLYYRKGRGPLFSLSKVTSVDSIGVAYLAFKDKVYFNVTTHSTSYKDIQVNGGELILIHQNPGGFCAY
Procedure: (§1) CHO supernatants diluted in FACS buffer (PBS containing 3% FBS) at 1, 5 or 10 μg/ml were used to screen for their binding capacity to canine OX40L using a cell-based assay. In brief, HEK293 or MEF cells (or any other commonly used cell lines) expressing canine OX40L at the cell surface are incubated with 100 μll of FACS buffer containing the candidate antibody for 30′ on ice. Cells are washed with 150 μl FACS buffer followed by centrifugation at 300 g for 3 min. The cell pellet is resuspended in FACS buffer containing a 1:1000 dilution of a fluorescently labelled secondary antibody recognising the canine Fc region of the test antibody for 30 min in the dark, followed by washing with 150 μl FACS buffer. Cells are resuspended in FACS buffer and flow cytometry performed using either a […] cytometer, followed by data analysis using FlowJo (FIG. 6 and Table 4).

[2] = target: T1, canine OX40L, full length membrane …; test: flow cytometry
Procedure: as §1

[3] = target: T1, canine OX40L, full length membrane …; test: cell-based or functional assay

B1: PMX082 (antibody, V domains shown)
VH: EVQLVESGGDLVKPGGSLRLSCVASGFTFSSHHMTWVRQAPGKGLQWVAYIVSGGTNTNYADAVKGRFTISRDNAKNTLYLQMNSLRAEDTAVYYCASDLVLAVGAPFYWGQGTLVTVSS
VL: SYELTQPPSVNVTLRETAHITCGGDSIGRKYVQWIQQNPGQAPVVIIYKDINRPTGIPERFSGANSGNTATLTISGALAEDEADYYCQVGDSGTKAVFGEGTQLTVL
notes: also called PMX82
GEO mean difference [1]: 531000
GEO mean OX40L expressing HEK [2]: 544000
% Signal Inhibition Average [3]: 72.3%
% Signal Inhibition Rep1 [3]: 72.8%
% Signal Inhibition Rep2 [3]: 71.9%
% Signal Inhibition Rep3 [3]: 72.1%

B2: PMX094 (antibody, V domains shown)
VH: DIHLVESGGDLVRPGGSLRLSCVASGFTFSNLHMNWVRQAPGKGLQWVAFINSGGSGTTYADVVRGRFTISRDYAKNTLYLQMNSLRADDTAVYYCASGSIWTHFDYWGQGTLVTVSS
VL: SFVLTQLPSVSVTLRQTARITCGGDSIGSKSVYWYQQKLGQAPVLIIYRDSNRPTGIPERISGASSGNTATLTISGALAEDEADYYCQVWDSSNKAMFGGGTHLTVL
% Signal Inhibition Average [3]: 45.4%
% Signal Inhibition Rep1 [3]: 38.6%
% Signal Inhibition Rep2 [3]: 55%
% Signal Inhibition Rep3 [3]: 42.7%

B3: PMX100 (antibody, V domains shown)
VH: EVQLVESGGDLVRPGGSLRLSCVASGFTFSSYHMSWVRQAPGKGLQWVAFINSGGSSTTYADVVRGRFTISRDYAKNTLYLQMNSLRAEDTAVYYCASGSIWTHFDYWGQGTLVTVSS
VL: SFVLTQLPSVSVTLRQTARITCGGDSIGSKSVYWYQQRLGQAPVLIIYRDSNRPTGIPERFSGASSGNTATLTISGALAEDEADYYCQVWDNSNKAMFGGGTHLTVL
% Signal Inhibition Average [3]: 32.4%
% Signal Inhibition Rep1 [3]: 49.1%
% Signal Inhibition Rep2 [3]: 28.1%
% Signal Inhibition Rep3 [3]: 19.9%

B4: PMX101 (antibody, V domains shown)
VH: EVQLVESGGDLVRPGGSLRLSCVASGFTFSNYHMSWVRQAPGKGLQWVAFINSGGSSTSYADAVRGRFTISRDYAKNTLYLQMNSLRAEDTAVYYCASGSIWTHFDYWGQGTLVTVSS
VL: SFVLTQLPSVSVTLRQTARITCGGDIIGSKSVYWFQQKLGQAPILIIYRDDNRPTGIPERFSGASSGNTATLIISGALAEDEAHYYCQVWDSSSKAMFGGGTHLTVL
% Signal Inhibition Average [3]: 52.4%
% Signal Inhibition Rep1 [3]: 62.6%
% Signal Inhibition Rep2 [3]: 50.3%
% Signal Inhibition Rep3 [3]: 44.4%

B5: PMX103 (antibody, V domains shown)
VH: EVQLVESGGDLVRPGGSLRLSCVASGFTFSNLHMNWVRQAPGKGLQWVAFINSGGSGTTYADVVRGRFTISRDYAKNTLNLQMTSLRAEDTAVYYCATGSIWTHFDYWGQGTLVTVSS
VL: SFVLTQLPSVSVTLRQTARITCGGDSIGSKSVYWYQQKLGQAPVLIIYRDSNRPTGIPERISGASSGNTATLTISGALAEDEADYYCQVWDSSNKAMFGGGTHLTVL
% Signal Inhibition Average [3]: 47.6%
% Signal Inhibition Rep1 [3]: 57.3%
% Signal Inhibition Rep2 [3]: 26.3%
% Signal Inhibition Rep3 [3]: 59.1%

B6: PMX095 (antibody, V domains shown)
VH: AVQLVESGGDLVRPGGSLRLSCVASGFTFSSYHMNWVRQAPGKGLQWVAFINSGGSSTTYADVVRGRFTISRDYAKNTLFLQMNSLRAEDTAVYYCAIGSIWTHFDYWGQGTLVTVSS
VL: SFVLTQLPSVSVTLRQTARITCGGDIIGSKNVYWYQQRLGQAPVLILYRDTNRPTGIPERFSGASSGNTATLTISGALAEDEADYYCQVWDNSNKAMFGGGTHLTVL
% Signal Inhibition Average [3]: 50.3%
% Signal Inhibition Rep1 [3]: 40.9%
% Signal Inhibition Rep2 [3]: 52.6%
% Signal Inhibition Rep3 [3]: 57.3%

B7: PMX099 (antibody, V domains shown)
VH: EVQLVESGGDLVRPGGSLRLSCVASGFTFSSYHMNWVRQAPGKGLQWVAFINSGGSSTTYADVVRGRFTISRDYAKNTLYLQMNSLRAEDTAVYYCASGSIWTHFDYWGQGTLVTVSS
VL: SFVLTQLPSVSVTLRQTARITCGGDSIGTKSVYWYQQKLGQAPVLIIYRDSNRPTGIPERFSGASSGNTATLTISGALAEDEADYYCQVWDSSNKAMFGGGTHLTVL
% Signal Inhibition Average [3]: 24.8%
% Signal Inhibition Rep1 [3]: 25.1%
% Signal Inhibition Rep2 [3]: 32.7%
% Signal Inhibition Rep3 [3]: 16.4%

B8: PMX062 (antibody)
heavy: EVQLVESGGDLVKPEGSLRLSCVVSGFTFSSYDMSWVRQAPGKGLQWVAYISFDGRSTSYTDVVKGRFTISRDNAKTTLYLQMNTLRIEDTAVYYCAKLSSSGWSMDYWGHGTSLFVSSASTTAPSVFPLAPSCGSTSGSTVALACLVSGYFPEPVTVSWNSGSLTSGVHTFPSVLQSSGLYSLSSMVTVPSSRWPSETFTCNVAHPASKTKVDKPVPKRENGRVPRPPDCPKCPAPESLGGPSVFIFPPKPKDTLLIARTPEVTCVVVDLGREDPEVQISWFVDGKQMQTAKTQPREEQFNGTYRVVSVLPIGHQDWLKGKQFTCKVNHIGLPSPIERTISKARGQAHQPSVYVLPPSREELSKNTVSLTCLIKDFFPPDIDVEWQSNGQQEPESKYRTTPPQLDEDGSYFLYSKLSVDKSRWQRGDTFICAVMHEALHNHYTQKSLSHSPGK
VL: SYVLTQLPSKNVTLKQPAHITCGGDNIGSKSVHWYQQKLGQAPVLIIYYDSSRPTGIPERFSGANSGNTATLTISGALAEDEADYYCQVWDSSASVFGGGTHLTVL
notes: also called PMX62
GEO mean difference [1]: 2.78e+06
GEO mean OX40L expressing HEK [2]: 2.81e+06
% Signal Inhibition Average [3]: 15%
% Signal Inhibition Rep1 [3]: 4.15%
% Signal Inhibition Rep2 [3]: 22.1%
% Signal Inhibition Rep3 [3]: 18.7%

B9: PMX089 (antibody, V domains shown)
VH: EVQLVESGGDLVKPGGSLRLSCVASGFTFNNFHMSWVRQAPGKGLQWVAFINSDGGNRNYADVVKGRVTISRDYAKNTLYLQINSLRAEDTAVYYCAGGSIWTHFDYWGQGTLVTVSS
VL: SYVLTQLPSMSVTLRQTARITCEGDIIASKRIYWYQQKLGQVPVLLIYADSSRPSGIPERFSGASSGNTATLTISGALAEDEADYYCQVWDNNANSVFGGGTHLTVL
% Signal Inhibition Average [3]: 47.4%
% Signal Inhibition Rep1 [3]: 43.3%
% Signal Inhibition Rep2 [3]: 49.7%
% Signal Inhibition Rep3 [3]: 49.1%

B10: PMX093 (antibody, V domains shown)
VH: EVQLVESGGDLVKPGGSLRLSCVASGFTFSSYHMSWVRQAPGKGLQWVAFINSGGGGTNYADAVKGRFTISRDYAKNTLYLQMNSLRAEDTAVYYCVGGSIWTHFDYWGQGTLVTVSS
VL: SYVLTQLPSMSVTLRQTARITCEGDIIASKRVYWYQQKLGQVPVLLIYGDSSRPSGIPERFSGANSGNTATLTISGALAEDEADYYCQVWDSGTNSVFGGGTHLTVL
% Signal Inhibition Average [3]: 5.46%
% Signal Inhibition Rep1 [3]: 0%
% Signal Inhibition Rep2 [3]: -0.585%
% Signal Inhibition Rep3 [3]: 17%

B11: PMX092 (antibody, V domains shown)
VH: EVQLVESGGDLVKPGGSLRLSCVASGFTFNNLHMSWVRQAPGKGLQWVAFINSDGRNRNYADAVKGRVTISRDYAKNTLYLQINSLRAEDTAVYYCTGGSIWTHFDYWGQGTLVTVSS
VL: SYVLTQLPSMSVTLRQTARITCEGDIIASKRVYWYQQKLGQVPVLFIYADNSRPSGIPERFSGASSGNTATLTISGALAEDEADYYCQVWDSNANSVFGGGTHLTVL
% Signal Inhibition Average [3]: 34.7%
% Signal Inhibition Rep1 [3]: 33.3%
% Signal Inhibition Rep2 [3]: 39.2%
% Signal Inhibition Rep3 [3]: 31.6%

B12: PMX096 (antibody, V domains shown)
VH: EVQLVESGGDLVKPGGSLRLSCVASGFTFNTYHMNWVRQAPGKGLHWVAFINSGGSDTSYADTVQGRFTISRDYAKNTLYLQMNSLRAEDTAVYYCASGYIWTHFDYWGQGTLVTVSS
VL: SYVLTQLPSVSVTLRQTAHITCGGDIIGSKSVYWYQQKLGQAPVMIIYRDNNRPTGIPERFSGASSGNTATLTISGSLAEDEADYYCQVWDSRTQALFGGGTHLTVL
% Signal Inhibition Average [3]: 50.1%
% Signal Inhibition Rep1 [3]: 36.8%
% Signal Inhibition Rep2 [3]: 59.1%
% Signal Inhibition Rep3 [3]: 54.4%

B13: PMX084 (antibody, V domains shown)
VH: EVQLVESGGDLVKPEGSLRLSCVVSGFTFSNYDMSWVRQAPGKGLQWVAFISNDGRITGYTDAVEGRFTISRDNAKNTLYLQMNSLRTEDTAVYYCAKETSRWGFDYWGQGTLVTVSS
VL: SYVLTQLPSVSVTLRQTARITCGGDSIGSKNVYWHQQKLGQAPVLIIYDDSSRPSGIPERFSGANSGNTATLTISGALAEDEADYYCQVWDSSTSVFGGGTHLTVL
notes: also called PMX84
GEO mean difference [1]: 610000
GEO mean OX40L expressing HEK [2]: 622000
% Signal Inhibition Average [3]: 60.7%
% Signal Inhibition Rep1 [3]: 47.2%
% Signal Inhibition Rep2 [3]: 66.9%
% Signal Inhibition Rep3 [3]: 68%
